Source: PMC9896810, “Crk proteins activate the Rap1 guanine nucleotide exchange factor C3G by segregated adaptor-dependent and -independent mechanisms” (Cell Communication and Signaling : CCS, 2023)
Substitutions are numbered along the chain they refer to.

Legend:
[1] = biological target: T1, Src-phosphorylated C3G-AAAP (human, UniProt Q13905-1 4-1077, P283A | P284A | L286 | P287 | P289A | P453A | P454A | L456A | P457A | K459A | …, phosphotyrosines from phosphorylation in vitro with Src (sites not given)); assay: ITC; single-PRM mutant of C3G in the cell titrated with CrkL or CrkL-SH3N, 25 °C, 300 mM NaCl, pH 7.5; SEDPHAT, 1:1 heteroassociation model; N is the competent fraction of C3G; details: both partners purified
T1 construct: human C3G isoform a, residues 4-1077; only P4 kept, P1, P2 and P3 mutated to Ala; also called pC3G-AAAP; source: E. coli BL21 (DE3), purified; phosphorylated in vitro with the recombinant kinase domain of Src, then SEC; not shown: His, N-terminal, cleaved; Halo, N-terminal, cleaved
T1 sequence (looked up): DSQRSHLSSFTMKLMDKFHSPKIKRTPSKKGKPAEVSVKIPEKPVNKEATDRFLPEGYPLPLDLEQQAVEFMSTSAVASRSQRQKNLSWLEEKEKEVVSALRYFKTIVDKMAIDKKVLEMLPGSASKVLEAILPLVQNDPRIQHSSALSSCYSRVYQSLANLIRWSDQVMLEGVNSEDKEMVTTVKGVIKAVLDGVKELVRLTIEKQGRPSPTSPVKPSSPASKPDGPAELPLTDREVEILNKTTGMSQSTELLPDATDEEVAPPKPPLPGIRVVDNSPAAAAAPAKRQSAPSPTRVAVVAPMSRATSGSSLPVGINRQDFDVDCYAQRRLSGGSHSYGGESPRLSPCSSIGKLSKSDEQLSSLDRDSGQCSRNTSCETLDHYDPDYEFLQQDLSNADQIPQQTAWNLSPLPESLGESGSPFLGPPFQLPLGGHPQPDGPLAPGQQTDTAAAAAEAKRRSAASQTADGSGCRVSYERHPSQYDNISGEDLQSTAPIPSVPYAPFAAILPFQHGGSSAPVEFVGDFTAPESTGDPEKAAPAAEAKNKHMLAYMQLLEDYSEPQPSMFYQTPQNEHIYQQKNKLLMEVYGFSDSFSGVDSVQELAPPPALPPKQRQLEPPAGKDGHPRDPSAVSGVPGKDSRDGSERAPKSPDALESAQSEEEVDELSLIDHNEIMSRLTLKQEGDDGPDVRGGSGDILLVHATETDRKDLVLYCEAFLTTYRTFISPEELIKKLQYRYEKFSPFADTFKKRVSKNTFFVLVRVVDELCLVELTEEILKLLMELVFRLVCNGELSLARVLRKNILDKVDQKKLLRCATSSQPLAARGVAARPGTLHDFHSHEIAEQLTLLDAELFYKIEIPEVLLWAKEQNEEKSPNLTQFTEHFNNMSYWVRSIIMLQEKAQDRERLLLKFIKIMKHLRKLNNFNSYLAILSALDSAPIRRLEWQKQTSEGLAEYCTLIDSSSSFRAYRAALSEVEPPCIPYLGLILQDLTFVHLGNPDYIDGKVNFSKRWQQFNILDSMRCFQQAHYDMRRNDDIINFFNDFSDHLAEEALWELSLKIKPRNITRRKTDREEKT

[2] = biological target: T2, Src-phosphorylated C3G-AAPA (human, UniProt Q13905-1 4-1077, P283A | P284A | L286 | P287 | P289A | P453A | P454A | L456A | P457A | K459A | …, phosphotyrosines from phosphorylation in vitro with Src (sites not given)); assay: as above; details: both partners purified
T2 construct: human C3G isoform a, residues 4-1077; only P3 kept, P1, P2 and P4 mutated to Ala; also called pC3G-AAPA; source: E. coli BL21 (DE3), purified; phosphorylated in vitro with the recombinant kinase domain of Src, then SEC; not shown: His, N-terminal, cleaved; Halo, N-terminal, cleaved
T2 sequence (looked up): T1 sequence (looked up) with A537P, A538P, A540L, A541P, A543K, P605A, P606A, L608A, P609A, K611A

B1: CrkL-SH3N (domain or fragment, human, UniProt P46109 125-182, looked up)
chain: LEYVRTLYDFPGNDAEDLPFKKGEILVIIEKPEEQWWSARNKDGRVGMIPVPYVEKLV
notes: human CrkL, SH3N domain, residues 125-182, in pETEV15b; source: E. coli BL21 (DE3), purified (IMAC, TEV digestion, SEC); not shown: His, N-terminal, cleaved
B1 was tested, and the Kd [1] was 2400 nM, the “stoichiometry N” value [1] was 0.74 and the Kd [2] was 2100 nM. The “stoichiometry N” value [2] was 0.08.
